Read-outs that look alike come from different tables or passages of the source.

Data set [1] deals with IgG molecules present in normal human sera. The data set can be described thus: Serum response analysis: ELISA of human serum IgG binding to albumin binding polypeptides. As for the experimental part:
Each serum sample was tested as a singlet.
A general note: An ELISA detects its analyte on a solid surface through an enzyme-linked reagent.

Turning to “Keyhole Limpet Hemocyanin [KLH, reference compound]”, the “number of responding individuals” value in the data set on CD3+ CD4+ T cells is recorded as 51. With `CC[C@H](C)[C@H](NC(=O)[C@H](CCC(=O)O)NC(=O)[C@H](CC(=O)O)NC(=O)[C@@H](NC(=O)[C@H](CC(C)C)NC(=O)[C@H](C)NC(=O)[C@H](CCCCN)NC(=O)[C@@H](NC(=O)CNC(=O)[C@H](CCC(=O)O)NC(=O)[C@@H](NC(=O)[C@@H](NC(=O)[C@H](CCCCN)NC(=O)[C@H](C)NC(=O)[C@H](CC(N)=O)NC(=O)[C@H](CC(N)=O)NC(=O)[C@@H](NC(=O)[C@H](CC(C)C)NC(=O)[C@H](CC(N)=O)NC(=O)[C@H](CCCCN)NC(=O)[C@H](Cc1ccc(O)cc1)NC(=O)[C@H](Cc1ccc(O)cc1)NC(=O)[C@H](CC(=O)O)NC(=O)[C@H](CO)NC(=O)[C@@H](NC(=O)CNC(=O)[C@H](Cc1ccc(O)cc1)NC(=O)[C@H](CCCCN)NC(=O)[C@H](CC(=O)O)NC(=O)[C@H](CC(C)C)NC(=O)[C@H](CCC(=O)O)NC(=O)[C@H](CCCNC(=N)N)NC(=O)[C@H](CC(N)=O)NC(=O)[C@H](C)NC(=O)[C@H](CC(C)C)NC(=O)[C@@H](NC(=O)[C@H](CCCCN)NC(=O)[C@H](C)NC(=O)[C@H](CCC(=O)O)NC(=O)[C@H](C)NC(=O)[C@H](CC(C)C)NC(=O)CN)C(C)C)C(C)C)[C@@H](C)CC)[C@@H](C)O)C(C)C)C(C)C)[C@@H](C)CC)C(=O)N[C@@H](CC(C)C)C(=O)N[C@@H](C)C(=O)N[C@@H](C)C(=O)N[C@@H](CC(C)C)C(=O)N1CCC[C@H]1C(=O)O` [PEP07913, reference compound], the “reactivity with serum IgG (average OD-value and percentage of serum with IgG binding)” value in data set [1] is “highest”.

Take `CC[C@H](C)[C@H](NC(=O)[C@H](Cc1c[nH]cn1)NC(=O)[C@H](CC(C)C)NC(=O)[C@H](CCCCN)NC(=O)[C@H](CC(C)C)NC(=O)[C@H](C)NC(=O)[C@H](CCC(=O)O)NC(=O)[C@@H](NC(=O)CNC(=O)[C@H](CCC(=O)O)NC(=O)[C@@H](NC(=O)[C@@H](NC(=O)[C@H](CCCCN)NC(=O)[C@H](C)NC(=O)[C@H](CCCCN)NC(=O)[C@H](CC(N)=O)NC(=O)[C@@H](NC(=O)[C@H](CC(C)C)NC(=O)[C@H](CCCNC(=N)N)NC(=O)[C@H](CCCCN)NC(=O)[C@H](Cc1ccc(O)cc1)NC(=O)[C@H](Cc1ccccc1)NC(=O)[C@H](CC(=O)O)NC(=O)[C@H](CO)NC(=O)[C@@H](NC(=O)CNC(=O)[C@H](Cc1ccc(O)cc1)NC(=O)[C@H](CCCCN)NC(=O)[C@H](CC(=O)O)NC(=O)[C@H](CC(C)C)NC(=O)[C@H](CCC(=O)O)NC(=O)[C@H](CCCNC(=N)N)NC(=O)[C@H](CC(N)=O)NC(=O)[C@H](C)NC(=O)[C@H](CC(C)C)NC(=O)[C@@H](NC(=O)[C@H](CCCCN)NC(=O)[C@H](C)NC(=O)[C@H](CCC(=O)O)NC(=O)[C@H](C)NC(=O)[C@H](CC(C)C)NC(=O)[C@H](CO)NC(=O)[C@H](CO)NC(=O)CN)C(C)C)C(C)C)[C@@H](C)CC)[C@@H](C)O)C(C)C)C(C)C)C(=O)N[C@@H](CC(C)C)C(=O)N[C@@H](C)C(=O)N[C@@H](C)C(=O)N[C@@H](CC(C)C)C(=O)N1CCC[C@H]1C(=O)O` [PEP06923, reference compound]: the “reactivity with serum IgG (average OD-value and percentage of serum with IgG binding)” value in data set [1] (126 positive human sera, diluted 50 times) is “highest”. For `CC[C@H](C)[C@H](NC(=O)[C@H](C)NC(=O)[C@H](CC(=O)O)NC(=O)[C@H](CCCCN)NC(=O)[C@H](CC(C)C)NC(=O)[C@H](C)NC(=O)[C@H](CCC(=O)O)NC(=O)[C@@H](NC(=O)CNC(=O)[C@H](CCC(=O)O)NC(=O)[C@@H](NC(=O)[C@@H](NC(=O)[C@H](CCCCN)NC(=O)[C@H](C)NC(=O)[C@H](CCCCN)NC(=O)[C@H](CC(=O)O)NC(=O)[C@@H](NC(=O)[C@H](CC(C)C)NC(=O)[C@H](CCCNC(=N)N)NC(=O)[C@H](CCCCN)NC(=O)[C@H](Cc1ccc(O)cc1)NC(=O)[C@H](Cc1ccccc1)NC(=O)[C@H](CC(=O)O)NC(=O)[C@H](CO)NC(=O)[C@@H](NC(=O)CNC(=O)[C@H](Cc1ccc(O)cc1)NC(=O)[C@H](CSC1CC(=O)N(CCNC(=O)CN2CCN(CC(=O)O)CCN(CC(=O)O)CCN(CC(=O)O)CC2)C1=O)NC(=O)[C@H](CC(=O)O)NC(=O)[C@H](CC(C)C)NC(=O)[C@H](CCC(=O)O)NC(=O)[C@H](C)NC(=O)[C@H](CC(N)=O)NC(=O)[C@H](C)NC(=O)[C@H](C)NC(=O)[C@H](CCC(=O)O)NC(=O)[C@H](CCCCN)NC(=O)[C@H](C)NC(=O)[C@H](CO)NC(=O)[C@H](C)NC(=O)[C@H](CC(C)C)NC(=O)CN)C(C)C)[C@@H](C)CC)[C@@H](C)O)C(C)C)C(C)C)C(=O)N[C@@H](CC(C)C)C(=O)N[C@@H](C)C(=O)N[C@@H](C)C(=O)N[C@@H](CC(C)C)C(=O)N1CCC[C@H]1C(=O)O` (stereo partly shown) [PEP07968], in data set [1], the “reactivity with serum IgG (average OD-value and percentage of serum with IgG binding)” value was “least reactivity”. Further, in the data set with CD3+ CD4+ T cells, the immunogenicity definition result was “non-immunogenic” and the “number of responding individuals” value was found to be 1. In the case of `CC[C@H](C)[C@H](NC(=O)[C@H](C)NC(=O)[C@H](CC(=O)O)NC(=O)[C@H](CCCCN)NC(=O)[C@H](CC(C)C)NC(=O)[C@H](C)NC(=O)[C@H](CCC(=O)O)NC(=O)[C@@H](NC(=O)CNC(=O)[C@H](CCC(=O)O)NC(=O)[C@@H](NC(=O)[C@@H](NC(=O)[C@H](CCCCN)NC(=O)[C@H](C)NC(=O)[C@H](CCCCN)NC(=O)[C@H](CC(=O)O)NC(=O)[C@@H](NC(=O)[C@H](CC(C)C)NC(=O)[C@H](CCCNC(=N)N)NC(=O)[C@H](CCCCN)NC(=O)[C@H](Cc1ccc(O)cc1)NC(=O)[C@H](Cc1ccccc1)NC(=O)[C@H](CC(=O)O)NC(=O)[C@H](CO)NC(=O)[C@@H](NC(=O)CNC(=O)[C@H](Cc1ccc(O)cc1)NC(=O)[C@H](CCCCN)NC(=O)[C@H](CC(=O)O)NC(=O)[C@H](CC(C)C)NC(=O)[C@H](CCC(=O)O)NC(=O)[C@H](C)NC(=O)[C@H](CC(N)=O)NC(=O)[C@H](C)NC(=O)[C@H](C)NC(=O)[C@H](CCC(=O)O)NC(=O)[C@H](CCCCN)NC(=O)[C@H](C)NC(=O)[C@H](CO)NC(=O)[C@H](C)NC(=O)[C@H](CC(C)C)NC(=O)[C@H](CO)NC(=O)[C@H](CO)NC(=O)CN)C(C)C)[C@@H](C)CC)[C@@H](C)O)C(C)C)C(C)C)C(=O)N[C@@H](CC(C)C)C(=O)N[C@@H](C)C(=O)N[C@@H](C)C(=O)N[C@@H](CC(C)C)C(=O)N1CCC[C@H]1C(=O)O` [PEP07844], the “reactivity with serum IgG (average OD-value and percentage of serum with IgG binding)” value in data set [1] is recorded as “highest”.

(Values after patent publication US20180344813A1, “ENGINEERED POLYPEPTIDES HAVING ENHANCED DURATION OF ACTION WITH REDUCED IMMUNOGENICITY” (priority 2016, published 2018).)
